Holding throughout (experiment): co-IP; anti-Flag M2 affinity gel on extracts of NIH3T3 cells transfected with 3xFlag Cyclin A2 alleles; endogenous partners detected by Western blot; densitometry (ImageQuantTL) normalised to immunoprecipitated Cyclin A2, percent of WT; repeated 5 times
On the technique in general: A western blot detects proteins with antibodies after separation by electrophoresis.

Experiment [1] concerns the target Cyclin A2 K256A, C-terminally fused to 3 Flag tags (mouse) (UniProt P51943).
Experiment [2] has as its target Cyclin A2 Double (W207L, E210Q), C-terminally fused to 3 Flag tags (mouse) (UniProt P51943).
In experiment [3] the target is Cyclin A2 WT, C-terminally fused to 3 Flag tags (mouse) (UniProt P51943).
Cyclin A2 WT, C-terminally fused to 3 Flag tags (mouse), sequence (P51943 whole entry, the tested form may be a part): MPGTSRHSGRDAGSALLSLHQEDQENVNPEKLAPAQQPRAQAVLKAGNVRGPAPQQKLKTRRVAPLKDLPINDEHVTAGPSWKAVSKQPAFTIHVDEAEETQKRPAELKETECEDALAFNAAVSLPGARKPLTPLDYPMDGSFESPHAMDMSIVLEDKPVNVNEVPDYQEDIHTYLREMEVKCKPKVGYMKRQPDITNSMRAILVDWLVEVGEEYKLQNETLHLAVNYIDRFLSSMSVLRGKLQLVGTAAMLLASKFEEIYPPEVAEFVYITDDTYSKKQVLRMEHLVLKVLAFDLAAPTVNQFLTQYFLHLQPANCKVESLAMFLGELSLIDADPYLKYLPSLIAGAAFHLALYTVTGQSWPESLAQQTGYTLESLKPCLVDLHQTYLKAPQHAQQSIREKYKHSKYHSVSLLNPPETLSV
The target in experiment [4] is Cyclin A2 E210Q, C-terminally fused to 3 Flag tags (mouse) (UniProt P51943).
Cyclin A2 E210Q, C-terminally fused to 3 Flag tags (mouse), sequence (P51943 whole entry E210Q, the tested form may be a part): as the sequence (P51943 whole entry, the tested form may be a part) above, with E210Q counted along it
Experiment [5] addresses Cyclin A2 M200A, C-terminally fused to 3 Flag tags (mouse) (UniProt P51943).
Experiment [6] deals with Cyclin A2 L282R, C-terminally fused to 3 Flag tags (mouse) (UniProt P51943).
Cyclin A2 L282R, C-terminally fused to 3 Flag tags (mouse), sequence (P51943 whole entry L282R, the tested form may be a part): as the sequence (P51943 whole entry, the tested form may be a part) above, with L282R counted along it
Experiment [7] has as its target Cyclin A2 D171A, C-terminally fused to 3 Flag tags (mouse) (UniProt P51943).
For experiment [8], the target named is Cyclin A2 E285A, C-terminally fused to 3 Flag tags (mouse) (UniProt P51943).
Cyclin A2 E285A, C-terminally fused to 3 Flag tags (mouse), sequence (P51943 whole entry E285A, the tested form may be a part): as the sequence (P51943 whole entry, the tested form may be a part) above, with E285A counted along it
Experiment [9] concerns the target Cyclin A2 E180A, C-terminally fused to 3 Flag tags (mouse) (UniProt P51943).
Experiment [10] deals with Cyclin A2 L204A, C-terminally fused to 3 Flag tags (mouse) (UniProt P51943).
Cyclin A2 L204A, C-terminally fused to 3 Flag tags (mouse), sequence (P51943 whole entry L204A, the tested form may be a part): as the sequence (P51943 whole entry, the tested form may be a part) above, with L204A counted along it
Experiment [11] deals with Cyclin A2 W207A, C-terminally fused to 3 Flag tags (mouse) (UniProt P51943).
Cyclin A2 W207A, C-terminally fused to 3 Flag tags (mouse), sequence (P51943 whole entry W207A, the tested form may be a part): as the sequence (P51943 whole entry, the tested form may be a part) above, with W207A counted along it

Cyclin A2 D171A, C-terminally fused to 3 Flag tags (mouse), sequence (P51943 whole entry D171A, the tested form may be a part): as the sequence (P51943 whole entry, the tested form may be a part) above, with D171A counted along it
Cyclin A2 K256A, C-terminally fused to 3 Flag tags (mouse), sequence (P51943 whole entry K256A, the tested form may be a part): as the sequence (P51943 whole entry, the tested form may be a part) above, with K256A counted along it
Cyclin A2 Double (W207L, E210Q), C-terminally fused to 3 Flag tags (mouse), sequence (P51943 whole entry W207L/E210Q, the tested form may be a part): as the sequence (P51943 whole entry, the tested form may be a part) above, with W207L, E210Q counted along it
Cyclin A2 E180A, C-terminally fused to 3 Flag tags (mouse), sequence (P51943 whole entry E180A, the tested form may be a part): as the sequence (P51943 whole entry, the tested form may be a part) above, with E180A counted along it
Cyclin A2 M200A, C-terminally fused to 3 Flag tags (mouse), sequence (P51943 whole entry M200A, the tested form may be a part): as the sequence (P51943 whole entry, the tested form may be a part) above, with M200A counted along it

Substance “CDK2 (endogenous, NIH3T3) (from UniProt P97377 1-346)” returned a percent co-precipitated relative to WT in [1] of 68.2%.

For “CDK2 (endogenous, NIH3T3) (from UniProt P97377 1-346) (enzyme)”, the percent co-precipitated relative to WT in experiment [2] came out at 66.4%; in experiment [3], 100%; in [4] it was 99.6%; in [5] it was 86.4%; in [6], 81.5%; in experiment [7], 100%. The percent co-precipitated relative to WT was 41.7% in experiment [8], 17.7% in [9], 72.4% in [10] and 1.2% in [11].

The record behind these values is publication PMC3145769.
